Assay results published in patent publication US20080280833A1, “Therapeutic Peptides Derived from Urokinase Plasminogen Activator Receptor” (priority 2005, published 2008).

Target: purified human αvβ3 integrin (Chemicon) (human) (UniProt P06756)
Test: cell-free pull-down: 125I-suPAR + αvβ3 + uPA + D2A (5 µg), immunoprecipitation with LM609, densitometry

purified human αvβ3 integrin (Chemicon) (human), sequence (P06756 31-1048, form in doubt, chain 1 of 2): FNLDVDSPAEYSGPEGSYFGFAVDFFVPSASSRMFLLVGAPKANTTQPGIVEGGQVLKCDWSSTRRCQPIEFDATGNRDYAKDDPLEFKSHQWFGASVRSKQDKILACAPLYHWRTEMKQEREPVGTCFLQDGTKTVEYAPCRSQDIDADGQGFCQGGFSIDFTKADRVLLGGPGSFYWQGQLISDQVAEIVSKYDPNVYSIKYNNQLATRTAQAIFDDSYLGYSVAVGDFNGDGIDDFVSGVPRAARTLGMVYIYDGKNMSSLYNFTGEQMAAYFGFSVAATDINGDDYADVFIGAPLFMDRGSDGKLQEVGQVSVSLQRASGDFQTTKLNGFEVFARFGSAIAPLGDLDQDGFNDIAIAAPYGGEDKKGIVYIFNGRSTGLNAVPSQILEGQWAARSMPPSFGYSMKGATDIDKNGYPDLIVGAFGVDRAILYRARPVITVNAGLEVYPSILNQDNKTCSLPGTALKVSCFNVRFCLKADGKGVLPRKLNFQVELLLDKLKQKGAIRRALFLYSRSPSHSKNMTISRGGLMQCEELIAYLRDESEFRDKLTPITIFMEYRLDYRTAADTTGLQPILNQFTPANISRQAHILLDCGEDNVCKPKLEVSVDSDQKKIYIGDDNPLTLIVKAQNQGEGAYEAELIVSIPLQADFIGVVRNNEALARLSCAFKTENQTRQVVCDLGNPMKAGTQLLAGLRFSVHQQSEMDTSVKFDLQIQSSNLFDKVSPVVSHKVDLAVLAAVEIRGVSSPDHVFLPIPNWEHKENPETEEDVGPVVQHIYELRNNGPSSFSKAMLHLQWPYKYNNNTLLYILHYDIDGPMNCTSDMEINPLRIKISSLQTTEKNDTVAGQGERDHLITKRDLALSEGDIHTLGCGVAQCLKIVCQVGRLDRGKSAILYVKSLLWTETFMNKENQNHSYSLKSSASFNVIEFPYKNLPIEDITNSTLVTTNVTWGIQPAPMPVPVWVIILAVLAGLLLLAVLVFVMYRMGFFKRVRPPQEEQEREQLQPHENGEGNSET
purified human αvβ3 integrin (Chemicon) (human), sequence (P05106 27-788, form in doubt, chain 2 of 2, further chain): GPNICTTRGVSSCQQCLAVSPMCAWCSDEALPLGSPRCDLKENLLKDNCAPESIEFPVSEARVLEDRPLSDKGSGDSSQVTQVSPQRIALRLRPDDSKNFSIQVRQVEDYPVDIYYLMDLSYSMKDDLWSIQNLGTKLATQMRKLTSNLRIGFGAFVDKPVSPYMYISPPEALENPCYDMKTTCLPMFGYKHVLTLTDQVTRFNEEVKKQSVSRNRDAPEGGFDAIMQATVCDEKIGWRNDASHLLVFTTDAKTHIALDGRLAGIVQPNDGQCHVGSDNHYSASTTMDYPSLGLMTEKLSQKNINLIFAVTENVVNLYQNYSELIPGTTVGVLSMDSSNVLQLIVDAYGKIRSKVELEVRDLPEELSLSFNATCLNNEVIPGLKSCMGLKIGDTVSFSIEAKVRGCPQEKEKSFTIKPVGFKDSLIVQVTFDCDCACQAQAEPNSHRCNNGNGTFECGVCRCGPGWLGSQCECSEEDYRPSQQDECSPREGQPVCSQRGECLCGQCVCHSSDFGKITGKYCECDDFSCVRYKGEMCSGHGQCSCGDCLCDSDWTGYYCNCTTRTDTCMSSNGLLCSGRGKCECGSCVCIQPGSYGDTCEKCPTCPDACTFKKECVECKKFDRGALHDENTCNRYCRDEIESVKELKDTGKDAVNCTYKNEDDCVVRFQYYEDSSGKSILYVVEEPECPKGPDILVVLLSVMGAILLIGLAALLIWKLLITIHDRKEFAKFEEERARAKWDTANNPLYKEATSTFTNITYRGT

percent reduction of coimmunoprecipitated suPAR compared to uPA alone: 50%
Substance: peptide D2A, synthetic peptide of domain 2 of human uPAR (aa130-142)
